T1: human FcγRIIa type R (human, UniProt P12318 36-217)
T1 construct: also called FcγRIIaR; FcγRIIa(R)
T1 chain: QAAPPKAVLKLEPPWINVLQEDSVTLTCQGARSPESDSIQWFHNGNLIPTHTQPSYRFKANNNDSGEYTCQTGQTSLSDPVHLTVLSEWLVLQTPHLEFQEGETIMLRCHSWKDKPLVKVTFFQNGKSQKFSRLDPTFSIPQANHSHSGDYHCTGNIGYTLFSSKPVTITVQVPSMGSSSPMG

T2: human FcγRIIb (human, UniProt P31994 43-217, limits assumed)
T2 construct: also called FcγIIB
T2 sequence: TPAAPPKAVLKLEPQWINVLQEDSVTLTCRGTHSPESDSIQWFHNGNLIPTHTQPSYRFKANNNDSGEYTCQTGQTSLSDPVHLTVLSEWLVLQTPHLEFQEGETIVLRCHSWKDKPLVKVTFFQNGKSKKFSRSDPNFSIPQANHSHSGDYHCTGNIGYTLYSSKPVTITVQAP

T3: human FcγRIIa type H (human, UniProt P12318 36-217)
T3 construct: also called FcγRIIaH; FcγRIIa(H)
T3 sequence: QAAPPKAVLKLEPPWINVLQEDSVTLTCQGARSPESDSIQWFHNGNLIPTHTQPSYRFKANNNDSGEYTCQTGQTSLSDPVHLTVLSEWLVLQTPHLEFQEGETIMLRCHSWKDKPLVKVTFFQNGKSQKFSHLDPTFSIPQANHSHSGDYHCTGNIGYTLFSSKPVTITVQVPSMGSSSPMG


Columns and labels:
Assay in all cases: SPR (Biacore), binding amount relative to IL6R-BF648/IL6R-L = 100
human FcγRIIa type R = target: T1, human FcγRIIa type R
human FcγRIIIa type V = target: T4, human FcγRIIIa type V (human, UniProt P08637 17-208, limits assumed)
T4 construct: also called FcγRIIIaV; FcγRIIIa(V)

human FcγRIa = target: T5, human FcγRIa (human, UniProt P12314 16-292, limits assumed)
T5 construct: also called CD64

human FcγRIIb = target: T2, human FcγRIIb
human FcγRIIa type H = target: T3, human FcγRIIa type H

T5 sequence (P12314 16-292 limits assumed): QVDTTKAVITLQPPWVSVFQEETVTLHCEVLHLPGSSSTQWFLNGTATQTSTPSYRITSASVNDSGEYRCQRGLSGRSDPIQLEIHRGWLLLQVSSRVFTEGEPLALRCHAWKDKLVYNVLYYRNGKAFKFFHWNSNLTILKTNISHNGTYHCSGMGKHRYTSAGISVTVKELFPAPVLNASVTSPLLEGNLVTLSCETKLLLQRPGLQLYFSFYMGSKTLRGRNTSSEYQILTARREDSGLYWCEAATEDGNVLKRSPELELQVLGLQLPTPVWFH
T4 sequence (P08637 other isoform, or with tags, fused parts or gaps limits assumed): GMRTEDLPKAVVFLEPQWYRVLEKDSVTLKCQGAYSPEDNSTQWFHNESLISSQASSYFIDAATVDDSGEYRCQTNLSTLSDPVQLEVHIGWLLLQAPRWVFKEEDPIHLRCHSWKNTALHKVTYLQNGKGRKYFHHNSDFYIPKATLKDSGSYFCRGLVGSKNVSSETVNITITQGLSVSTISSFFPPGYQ

Row | Binder | relative binding (human FcγRIIa type R) | relative binding (human FcγRIIIa type V) | relative binding (human FcγRIa) | relative binding (human FcγRIIb) | relative binding (human FcγRIIa type H)
1 | IL6R-BP102/IL6R-L (antibody, human IgG1, Alteration introduced into IL6R-B3; also called P238D/S267Q) heavy: QVQLQESGPGLVKPSETLSLTCAVSGHSISHDHAWSWVRQPPGEGLEWIGFISYSGITNYNPSLQGRVTISRDNSKNTLYLQMNSLRAEDTAVYYCARSLARTTAMDYWGEGTLVTVSSASTKGPSVFPLAPSSKSTSGGTAALGCLVKDYFPEPVTVSWNSGALTSGVHTFPAVLQSSGLYSLSSVVTVPSSSLGTQTYICNVNHKPSNTKVDKKVEPKSCDKTHTCPPCPAPELLGGDSVFLFPPKPKDTLMISRTPEVTCVVVDVQHEDPEVKFNWYVDGVEVHNAKTKPREEQYNSTYRVVSVLTVLHQDWLNGKEYKCKVSNKALPAPIEKTISKAKGQPREPQVYTLPPSRDELTKNQVSLTCLVKGFYPSDIAVEWESNGQPENNYKTTPPVLDSDGSFFLYSKLTVDKSRWQQGNVFSCSVMHEALHNHYTQESLSLSP light: DIQMTQSPSSLSASVGDRVTITCRASQDISSYLNWYQQKPGKAPKLLIYYTSRLHSGVPSRFSGSGSGTDFTFTISSLQPEDIATYYCQQGNTLPYTFGQGTKVEIK | 165 | 86 | 104 | 106 | 66
2 | IL6R-BP912/IL6R-L (antibody, human IgG1, Alteration introduced into IL6R-B3; also called P238D/A330R) heavy: QVQLQESGPGLVKPSETLSLTCAVSGHSISHDHAWSWVRQPPGEGLEWIGFISYSGITNYNPSLQGRVTISRDNSKNTLYLQMNSLRAEDTAVYYCARSLARTTAMDYWGEGTLVTVSSASTKGPSVFPLAPSSKSTSGGTAALGCLVKDYFPEPVTVSWNSGALTSGVHTFPAVLQSSGLYSLSSVVTVPSSSLGTQTYICNVNHKPSNTKVDKKVEPKSCDKTHTCPPCPAPELLGGDSVFLFPPKPKDTLMISRTPEVTCVVVDVSHEDPEVKFNWYVDGVEVHNAKTKPREEQYNSTYRVVSVLTVLHQDWLNGKEYKCKVSNKALPRPIEKTISKAKGQPREPQVYTLPPSRDELTKNQVSLTCLVKGFYPSDIAVEWESNGQPENNYKTTPPVLDSDGSFFLYSKLTVDKSRWQQGNVFSCSVMHEALHNHYTQESLSLSP light: DIQMTQSPSSLSASVGDRVTITCRASQDISSYLNWYQQKPGKAPKLLIYYTSRLHSGVPSRFSGSGSGTDFTFTISSLQPEDIATYYCQQGNTLPYTFGQGTKVEIK | 81 | 97 | 60 | 103 | 93
3 | IL6R-BP116/IL6R-L (antibody, human IgG1, Alteration introduced into IL6R-B3; also called P238D/K326T) heavy: QVQLQESGPGLVKPSETLSLTCAVSGHSISHDHAWSWVRQPPGEGLEWIGFISYSGITNYNPSLQGRVTISRDNSKNTLYLQMNSLRAEDTAVYYCARSLARTTAMDYWGEGTLVTVSSASTKGPSVFPLAPSSKSTSGGTAALGCLVKDYFPEPVTVSWNSGALTSGVHTFPAVLQSSGLYSLSSVVTVPSSSLGTQTYICNVNHKPSNTKVDKKVEPKSCDKTHTCPPCPAPELLGGDSVFLFPPKPKDTLMISRTPEVTCVVVDVSHEDPEVKFNWYVDGVEVHNAKTKPREEQYNSTYRVVSVLTVLHQDWLNGKEYKCKVSNTALPAPIEKTISKAKGQPREPQVYTLPPSRDELTKNQVSLTCLVKGFYPSDIAVEWESNGQPENNYKTTPPVLDSDGSFFLYSKLTVDKSRWQQGNVFSCSVMHEALHNHYTQESLSLSP light: DIQMTQSPSSLSASVGDRVTITCRASQDISSYLNWYQQKPGKAPKLLIYYTSRLHSGVPSRFSGSGSGTDFTFTISSLQPEDIATYYCQQGNTLPYTFGQGTKVEIK | 126 | 114 | 110 | 108 | 110
4 | IL6R-BP118/IL6R-L (antibody, human IgG1, Alteration introduced into IL6R-B3; also called P238D/K326S) heavy: QVQLQESGPGLVKPSETLSLTCAVSGHSISHDHAWSWVRQPPGEGLEWIGFISYSGITNYNPSLQGRVTISRDNSKNTLYLQMNSLRAEDTAVYYCARSLARTTAMDYWGEGTLVTVSSASTKGPSVFPLAPSSKSTSGGTAALGCLVKDYFPEPVTVSWNSGALTSGVHTFPAVLQSSGLYSLSSVVTVPSSSLGTQTYICNVNHKPSNTKVDKKVEPKSCDKTHTCPPCPAPELLGGDSVFLFPPKPKDTLMISRTPEVTCVVVDVSHEDPEVKFNWYVDGVEVHNAKTKPREEQYNSTYRVVSVLTVLHQDWLNGKEYKCKVSNSALPAPIEKTISKAKGQPREPQVYTLPPSRDELTKNQVSLTCLVKGFYPSDIAVEWESNGQPENNYKTTPPVLDSDGSFFLYSKLTVDKSRWQQGNVFSCSVMHEALHNHYTQESLSLSP light: DIQMTQSPSSLSASVGDRVTITCRASQDISSYLNWYQQKPGKAPKLLIYYTSRLHSGVPSRFSGSGSGTDFTFTISSLQPEDIATYYCQQGNTLPYTFGQGTKVEIK | 132 | 144 | 101 | 104 | 128
5 | IL6R-BP121/IL6R-L (antibody, human IgG1, Alteration introduced into IL6R-B3; also called P238D/K326Q) heavy: QVQLQESGPGLVKPSETLSLTCAVSGHSISHDHAWSWVRQPPGEGLEWIGFISYSGITNYNPSLQGRVTISRDNSKNTLYLQMNSLRAEDTAVYYCARSLARTTAMDYWGEGTLVTVSSASTKGPSVFPLAPSSKSTSGGTAALGCLVKDYFPEPVTVSWNSGALTSGVHTFPAVLQSSGLYSLSSVVTVPSSSLGTQTYICNVNHKPSNTKVDKKVEPKSCDKTHTCPPCPAPELLGGDSVFLFPPKPKDTLMISRTPEVTCVVVDVSHEDPEVKFNWYVDGVEVHNAKTKPREEQYNSTYRVVSVLTVLHQDWLNGKEYKCKVSNQALPAPIEKTISKAKGQPREPQVYTLPPSRDELTKNQVSLTCLVKGFYPSDIAVEWESNGQPENNYKTTPPVLDSDGSFFLYSKLTVDKSRWQQGNVFSCSVMHEALHNHYTQESLSLSP light: DIQMTQSPSSLSASVGDRVTITCRASQDISSYLNWYQQKPGKAPKLLIYYTSRLHSGVPSRFSGSGSGTDFTFTISSLQPEDIATYYCQQGNTLPYTFGQGTKVEIK | 155 | 157 | 118 | 113 | 135
6 | IL6R-BP119/IL6R-L (antibody, human IgG1, Alteration introduced into IL6R-B3; also called P238D/K326M) heavy: QVQLQESGPGLVKPSETLSLTCAVSGHSISHDHAWSWVRQPPGEGLEWIGFISYSGITNYNPSLQGRVTISRDNSKNTLYLQMNSLRAEDTAVYYCARSLARTTAMDYWGEGTLVTVSSASTKGPSVFPLAPSSKSTSGGTAALGCLVKDYFPEPVTVSWNSGALTSGVHTFPAVLQSSGLYSLSSVVTVPSSSLGTQTYICNVNHKPSNTKVDKKVEPKSCDKTHTCPPCPAPELLGGDSVFLFPPKPKDTLMISRTPEVTCVVVDVSHEDPEVKFNWYVDGVEVHNAKTKPREEQYNSTYRVVSVLTVLHQDWLNGKEYKCKVSNMALPAPIEKTISKAKGQPREPQVYTLPPSRDELTKNQVSLTCLVKGFYPSDIAVEWESNGQPENNYKTTPPVLDSDGSFFLYSKLTVDKSRWQQGNVFSCSVMHEALHNHYTQESLSLSP light: DIQMTQSPSSLSASVGDRVTITCRASQDISSYLNWYQQKPGKAPKLLIYYTSRLHSGVPSRFSGSGSGTDFTFTISSLQPEDIATYYCQQGNTLPYTFGQGTKVEIK | 181 | 145 | 117 | 110 | 133
7 | IL6R-BP110/IL6R-L (antibody, human IgG1, Alteration introduced into IL6R-B3; also called P238D/H268N) heavy: QVQLQESGPGLVKPSETLSLTCAVSGHSISHDHAWSWVRQPPGEGLEWIGFISYSGITNYNPSLQGRVTISRDNSKNTLYLQMNSLRAEDTAVYYCARSLARTTAMDYWGEGTLVTVSSASTKGPSVFPLAPSSKSTSGGTAALGCLVKDYFPEPVTVSWNSGALTSGVHTFPAVLQSSGLYSLSSVVTVPSSSLGTQTYICNVNHKPSNTKVDKKVEPKSCDKTHTCPPCPAPELLGGDSVFLFPPKPKDTLMISRTPEVTCVVVDVSNEDPEVKFNWYVDGVEVHNAKTKPREEQYNSTYRVVSVLTVLHQDWLNGKEYKCKVSNKALPAPIEKTISKAKGQPREPQVYTLPPSRDELTKNQVSLTCLVKGFYPSDIAVEWESNGQPENNYKTTPPVLDSDGSFFLYSKLTVDKSRWQQGNVFSCSVMHEALHNHYTQESLSLSP light: DIQMTQSPSSLSASVGDRVTITCRASQDISSYLNWYQQKPGKAPKLLIYYTSRLHSGVPSRFSGSGSGTDFTFTISSLQPEDIATYYCQQGNTLPYTFGQGTKVEIK | 128 | 127 | 105 | 101 | 127
8 | IL6R-BP103/IL6R-L (antibody, human IgG1, Alteration introduced into IL6R-B3; also called P238D/S267V) heavy: QVQLQESGPGLVKPSETLSLTCAVSGHSISHDHAWSWVRQPPGEGLEWIGFISYSGITNYNPSLQGRVTISRDNSKNTLYLQMNSLRAEDTAVYYCARSLARTTAMDYWGEGTLVTVSSASTKGPSVFPLAPSSKSTSGGTAALGCLVKDYFPEPVTVSWNSGALTSGVHTFPAVLQSSGLYSLSSVVTVPSSSLGTQTYICNVNHKPSNTKVDKKVEPKSCDKTHTCPPCPAPELLGGDSVFLFPPKPKDTLMISRTPEVTCVVVDVVHEDPEVKFNWYVDGVEVHNAKTKPREEQYNSTYRVVSVLTVLHQDWLNGKEYKCKVSNKALPAPIEKTISKAKGQPREPQVYTLPPSRDELTKNQVSLTCLVKGFYPSDIAVEWESNGQPENNYKTTPPVLDSDGSFFLYSKLTVDKSRWQQGNVFSCSVMHEALHNHYTQESLSLSP light: DIQMTQSPSSLSASVGDRVTITCRASQDISSYLNWYQQKPGKAPKLLIYYTSRLHSGVPSRFSGSGSGTDFTFTISSLQPEDIATYYCQQGNTLPYTFGQGTKVEIK | 163 | 77 | 56 | 107 | 69

Source: patent publication US20200199241A1 (Chugai, published 2020)
